Reference: patent US9724381B2 (THE ADMINISTRATORS OF THE TULANE EDUCATIONAL FUND, priority 2009, dated 2017)
Like-named read-outs stand apart in the source and are kept apart here. Values belong to the substance of their own block, whether it stands above or below them. Where no end group is shown, it is not given here. [ ]: non-standard residue; d: D form. The star is where a group is joined. d2Nal = N[C@H](Cc1ccc2ccccc2c1)C(=O)O; Palmitoyl = CCCCCCCCCCCCCCCC(=O)*; Octanoyl = CCCCCCCC(=O)*; Dap = NC[C@H](N)C(=O)O

What was measured:
[1] = molecular target: Ghrelin/GHRP/GHS Receptor (Rattus norvegicus, UniProt O08725); experiment: In vivo GH release in rat (serum GH by RIA after i.v. peptide); details: Table 2
Procedure: For the in vivo assay of GH Release in rat, immature female Sprague Dawley rats were obtained from Charles River from Wilmington, Mass. After arrival they were housed at 25° C. with a 14:10 h light:dark cycle. Water and Purina rat chow were available at libitum. Pups were weaned at 21 days of age.
Immature twenty six day old female Sprague Dawley rats, 3-6 rats per treatment dose, were pretreated with pentobarbital 20 minutes before iv injection of vehicle/peptide or peptide plus stimulator. Injection was made as a 0.1 ml solution. For the non-pentobarbital treated rat assay, peptides were administered iv into the tail vein of conscious rats. All animals were sacrificed by guillotine after iv peptide or vehicle. Trunk blood was collected at +10-15 minutes […], allowed to clot, centrifuged and serum stored until assayed for GH levels by RIA. The GH RIA reagents were distributed by the NIH. Control data was collected from rats treated with only the corresponding vehicle in the absence of peptide or stimulator. Control stimulated data was collected from rats treated with stimulator alone in the absence of any peptide.

GHS-R 1a [2] = molecular target: T1, GHS-R 1a (Rattus norvegicus, UniProt O08725); experiment: Plasma GH (ghrelin-induced, GHRH-induced, spontaneous pulsatile) in free-moving adult male rats after GHS-A; type: in vivo; details: for plasma GH response to ghrelin, central: 5 μg GHS-A i.c.v. 15 min before 500 ng ghrelin i.c.v.
T1 construct: free-moving rats were i.c.v. injected with either normal saline or GHS-A (5 μg); from tissue; host or cells: whole animal (rat; hypothalamus/pituitary)
Procedure: (§1) Adult male Sprague Dawley rats (225-260 g) were purchased from Charles River Canada (St. Constant, Canada) and individually housed on a 12-h light, 12-h dark cycle (lights on, 0600-1800 h) in a temperature (22±1° C.)- and humidity-controlled room. Purina rat chow (Ralston Purina Co., St. Louis, Mo.) and tap water were available ad libitum.
(§2) Chronic intracerebroventricular (i.c.v.) and intracardiac venous cannulas were implanted under sodium pentobarbital (50 mg/kg, i.p.) anesthesia using previously described techniques in (2) and (11). The placement of the icy cannulae was verified by both a positive drinking response to i.c.v. carbachol (100 ng/10 μl) injection on the day after surgery and methylene blue dye at the time of death. After surgery, the rats were placed directly in isolation test chambers with food and H2O freely available until body weight returned to preoperative levels (usually within 5-7 d). During this time the rats were handled daily to minimize any stress associated with handling on the day of the experiment. On the test day, food was removed 1.5 h before the start of sampling and was returned at the end.
The efficacy of GHS-A to antagonize ghrelin's stimulatory action on GH at both central and peripheral sites was examined. […] (500 ng). Both the human ghrelin peptide (provided by Dr. K. Chang, Phoenix Pharmaceuticals, Inc., Belmont, Calif.) and the GHS-A were diluted in normal saline just before use. Blood samples (0.35 ml) were withdrawn every 15 min over a 6-h sampling period (1000-1600 h) from all animals. […] All blood samples were immediately centrifuged, and plasma was separated and stored at −20° C. for subsequent assay of GH. To avoid hemodynamic disturbance, the red blood cells were resuspended in normal saline and returned to the animal after removal of the next blood sample.
Blood samples were withdrawn from 1000-1600 h, as described above.
These time points were chosen because they correspond closely to the time of onset of the spontaneous GH secretory episodes, as previously documented in our laboratory (2, 4). Blood samples were withdrawn from 1000-1600 h, as described above; however, no blood sample was withdrawn 5 min after the injections.

GHS-R 1a [3] = molecular target: T1, GHS-R 1a; experiment: Spontaneous and ghrelin-induced food intake in rats after i.c.v. GHS-A; type: in vivo
Procedure: as §1, §2
The effects of the GHS-A on both spontaneous and ghrelin-induced food intake and body weight gain were investigated. For the spontaneous experiments, the rats were fasted overnight (1600-1100 h next morning) and were i.c.v.-injected with either normal saline or GHS-A (5 μg) at 1100 h. Food intake was monitored on an hourly basis for 5 h after the initial injection (until 1600 h) and subsequently overnight (1600-0900 h next morning). A measured amount of rat chow pellets was placed in the cage every hour. Spillage was collected by placement of a diaper under the rat cages, and total food consumed for each period was calculated by subtracting uneaten food plus spillage from total given. Body weights were recorded daily at 0900 h. The latency to the onset of the first meal after the injection and the duration of that meal were also monitored.
Food intake was monitored on an hourly basis as described above. In this experiment, food was removed 1.5 h before the start of the test.

ghrelin-R (GHS-R 1a) [4] = molecular target: T2, ghrelin-R (GHS-R 1a) (Rattus norvegicus, UniProt O08725); experiment: Food intake after administration of peptide (FIG. 10); type: in vivo
T2 construct: from tissue; host or cells: whole animal (hypothalamus)

ghrelin-R (GHS-R 1a) [5] = molecular target: T2, ghrelin-R (GHS-R 1a); experiment: Plasma growth hormone / GH secretion after administration of peptide (FIG. 11); type: in vivo
[6] = molecular target: T3, ghrelin O-acyltransferase (GOAT) (Mus musculus, UniProt P0C7A3); details: Yang et al. 2008; cited from earlier work
T3 sequence (P0C7A3 1-435): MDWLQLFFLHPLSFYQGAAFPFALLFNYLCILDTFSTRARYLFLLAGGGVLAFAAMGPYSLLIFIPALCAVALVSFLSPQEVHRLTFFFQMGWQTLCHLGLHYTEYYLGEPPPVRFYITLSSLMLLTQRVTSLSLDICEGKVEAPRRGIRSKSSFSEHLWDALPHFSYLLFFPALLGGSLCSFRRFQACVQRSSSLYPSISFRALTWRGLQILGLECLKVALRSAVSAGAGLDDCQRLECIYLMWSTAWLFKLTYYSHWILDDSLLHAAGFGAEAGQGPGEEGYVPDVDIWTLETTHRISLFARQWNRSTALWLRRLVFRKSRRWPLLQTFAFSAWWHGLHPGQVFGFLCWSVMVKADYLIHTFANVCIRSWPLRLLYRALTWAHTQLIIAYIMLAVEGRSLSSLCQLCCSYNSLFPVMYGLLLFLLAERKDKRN

[7] = 5 μg GHS-A i.c.v., spontaneous GH pulses
[8] = overnight-fasted animals, 5 μg GHS-A i.c.v.
[9] = listed as Gly-Met-Ala-Gly-Ser-(Dap-Oct)-Phe-Leu-Ser-Pro-Glu-His-NH2
[10] = listed as Gly-Met-Ala-Gly-Ser-(Dap-Palmityl)-Phe-Leu-Ser-Pro-Glu-His-NH2

T2 sequence (O08725 whole entry): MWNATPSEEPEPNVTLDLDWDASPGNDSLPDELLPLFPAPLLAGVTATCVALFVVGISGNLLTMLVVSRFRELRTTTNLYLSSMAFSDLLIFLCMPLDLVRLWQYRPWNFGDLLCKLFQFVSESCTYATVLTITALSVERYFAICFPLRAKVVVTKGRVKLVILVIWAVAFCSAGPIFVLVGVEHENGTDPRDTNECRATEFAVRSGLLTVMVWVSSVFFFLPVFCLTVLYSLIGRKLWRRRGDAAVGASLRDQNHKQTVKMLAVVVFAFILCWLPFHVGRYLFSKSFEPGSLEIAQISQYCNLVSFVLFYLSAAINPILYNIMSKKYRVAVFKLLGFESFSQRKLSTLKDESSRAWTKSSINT
T1 sequence (O08725 whole entry): as above
Sequence of Ghrelin/GHRP/GHS Receptor (O08725 whole entry): as above

Stimulated GH release from rat ([1]; peptide antagonist 30 μg i.v. + stimulator DAla-DβNal-Ala-Trp-DPhe-Lys-NH2 0.3 μg): 733 ± 85 ng/mL
Stimulated GH release from rat ([1]; peptide antagonist 100 μg i.v. + stimulator DAla-DβNal-Ala-Trp-DPhe-Lys-NH2 1 μg): 818 ± 269 ng/mL
1-h GH AUC of the spontaneous GH secretory episode at 1100 h (GHS-R 1a [2]; 5 μg GHS-A i.c.v.): significantly reduced
1-h GH AUC of the spontaneous GH secretory episode at 1400 h (GHS-R 1a [2]; 5 μg GHS-A i.c.v.): significantly reduced
overall 6-h GH AUC (GHS-R 1a [2]; 5 μg GHS-A i.c.v.): significantly reduced
plasma GH response to ghrelin, central (GHS-R 1a [2]; listed as GHS-A): abolished
plasma GH response to ghrelin, central (GHS-R 1a [2]; listed as HisDβNalDLysTrpDPheLysNH2): virtually obliterated
amplitude of the spontaneous GH pulses (GHS-R 1a [2]; 5 μg GHS-A i.c.v. 15 min before expected GH secretory bursts): severely attenuated
reduction of GH AUC following i.c.v. ghrelin (GHS-R 1a [2]; 5 μg GHS-A i.c.v., ghrelin 500 ng i.c.v., vs normal saline controls): 15 fold
GH interpeak interval (cluster analysis) (GHS-R 1a [2]; [7]): no significant effect
GH nadir (cluster analysis) (GHS-R 1a [2]; [7]): no significant effect
GH peak frequency (cluster analysis) (GHS-R 1a [2]; [7]): no significant effect
GH peak height (cluster analysis) (GHS-R 1a [2]; [7]): significant suppression
plasma GH response to ghrelin, peripheral (GHS-R 1a [2]; 250 μg GHS-A i.v. 15 min before 5 μg ghrelin i.v.): strongly blocked
reduction of GH AUC following i.v. ghrelin (GHS-R 1a [2]; 250 μg GHS-A i.v., ghrelin 5 μg i.v., vs normal saline controls): 5 fold
GH response to GHRH (GHS-R 1a [2]; GHRH 5 μg i.v.): did not significantly reduce
cumulative food intake, ghrelin-stimulated (GHS-R 1a [3]; 5 μg GHS-A i.c.v. before ghrelin 500 ng i.c.v., up to 5 h after injection): significantly suppressed
ghrelin-stimulated food intake in the first hour after injections (GHS-R 1a [3]; 5 μg i.c.v. before ghrelin 500 ng i.c.v.): significantly inhibited
cumulative food intake beyond the first hour after injection (GHS-R 1a [3]; [8]): not inhibited
spontaneous food intake in the first hour after injection (GHS-R 1a [3]; [8]): significantly inhibited
Substance: His-DβNal-DLys-Trp-DPhe-Lys-NH2 (H[d2Nal][dK]W[dF]K-NH2; N-terminus assumed; SMILES NCCCC[C@H](NC(=O)[C@@H](Cc1ccccc1)NC(=O)[C@H](Cc1c[nH]c2ccccc12)NC(=O)[C@@H](CCCCN)NC(=O)[C@@H](Cc1ccc2ccccc2c1)NC(=O)[C@@H](N)Cc1c[nH]cn1)C(N)=O) [GHRP derivative ghrelin receptor antagonist; GHS-A of the rat studies per b295]

Substance: Gly-Met-Ala-Gly-Ser-(Dap-Oct)-Phe-Leu-Ser-Pro-Glu-His-NH2 (GMAGS[Dap](Octanoyl)FLSPEH-NH2; N-terminus assumed; SMILES CCCCCCCC(=O)NC[C@H](NC(=O)[C@H](CO)NC(=O)CNC(=O)[C@H](C)NC(=O)[C@H](CCSC)NC(=O)CN)C(=O)N[C@@H](Cc1ccccc1)C(=O)N[C@@H](CC(C)C)C(=O)N[C@@H](CO)C(=O)N1CCC[C@H]1C(=O)N[C@@H](CCC(=O)O)C(=O)N[C@@H](Cc1c[nH]cn1)C(N)=O) [peptide #3]
food intake (ghrelin-R (GHS-R 1a) [4]): inhibited food intake
food intake (ghrelin-R (GHS-R 1a) [4]; [9]): reduced
growth hormone secretion / plasma growth hormone levels (ghrelin-R (GHS-R 1a) [5]): inhibited growth hormone secretion
growth hormone secretion / plasma growth hormone levels (ghrelin-R (GHS-R 1a) [5]; [9]): inhibited

Substance: Gly-Ser-Ser(Oct)-Phe-Leu (GSS(Octanoyl)FL) [octanoylated ghrelin pentapeptide]
GOAT activity [6]: inhibited
potency enhancement when octanoylated serine-3 replaced by octanoylated diaminopropionic acid [6]: 45 fold

Substance: Gly-Met-Ala-Gly-Ser-(Dap-Palmityl)-Phe-Leu-Ser-Pro-Glu-His-NH2 (GMAGS[Dap](Palmitoyl)FLSPEH-NH2; N-terminus assumed; SMILES CCCCCCCCCCCCCCCC(=O)NC[C@H](NC(=O)[C@H](CO)NC(=O)CNC(=O)[C@H](C)NC(=O)[C@H](CCSC)NC(=O)CN)C(=O)N[C@@H](Cc1ccccc1)C(=O)N[C@@H](CC(C)C)C(=O)N[C@@H](CO)C(=O)N1CCC[C@H]1C(=O)N[C@@H](CCC(=O)O)C(=O)N[C@@H](Cc1c[nH]cn1)C(N)=O) [peptide #6]
food intake (ghrelin-R (GHS-R 1a) [4]; [10]): did not inhibit GH secretion or decreased food intake
growth hormone secretion / plasma growth hormone levels (ghrelin-R (GHS-R 1a) [5]; [10]): did not inhibit
